Test results reported in US20240392013A1 (STELEXIS THERAPEUTICS, published 2024).

T1: IL1RAP on HEK-Blue IL1β / HEK-Blue IL33 reporter cells (UniProt Q9NPH3 21-570, limits assumed)
T1 sequence (looked up): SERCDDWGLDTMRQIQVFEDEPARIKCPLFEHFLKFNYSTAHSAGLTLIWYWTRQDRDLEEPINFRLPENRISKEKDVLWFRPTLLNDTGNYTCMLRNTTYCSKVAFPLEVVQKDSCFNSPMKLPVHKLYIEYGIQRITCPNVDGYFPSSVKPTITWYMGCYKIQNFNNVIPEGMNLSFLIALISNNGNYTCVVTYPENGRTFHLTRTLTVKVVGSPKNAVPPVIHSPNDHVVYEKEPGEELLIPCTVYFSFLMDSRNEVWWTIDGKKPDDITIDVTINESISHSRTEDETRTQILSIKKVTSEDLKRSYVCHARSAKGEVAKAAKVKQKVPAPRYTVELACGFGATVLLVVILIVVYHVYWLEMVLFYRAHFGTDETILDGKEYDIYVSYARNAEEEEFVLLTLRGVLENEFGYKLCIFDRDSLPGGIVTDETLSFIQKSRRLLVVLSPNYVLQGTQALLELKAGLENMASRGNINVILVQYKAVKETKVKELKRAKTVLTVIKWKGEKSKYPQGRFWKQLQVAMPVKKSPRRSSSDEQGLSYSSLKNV

T2: cyIL1RAP-His (Lake Pharma) (cynomolgus monkey, UniProt A0A2K5X5J5 21-367)
T2 construct: Bought protein (Lake Pharma, lot 16205819371); also called cynomolgus IL1RAP; monkey IL1RAP; not shown: His tag
T2 sequence: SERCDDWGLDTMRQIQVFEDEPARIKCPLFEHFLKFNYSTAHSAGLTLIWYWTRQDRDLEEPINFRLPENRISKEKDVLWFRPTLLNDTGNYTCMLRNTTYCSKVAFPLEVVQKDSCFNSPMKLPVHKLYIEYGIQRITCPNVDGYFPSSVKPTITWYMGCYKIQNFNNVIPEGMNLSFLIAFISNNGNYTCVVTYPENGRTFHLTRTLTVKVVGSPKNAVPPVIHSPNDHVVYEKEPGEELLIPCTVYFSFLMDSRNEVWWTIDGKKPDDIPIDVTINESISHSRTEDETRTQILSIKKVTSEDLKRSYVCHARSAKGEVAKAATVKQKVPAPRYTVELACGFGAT

T3: recombinant human IL1RAP protein, extracellular domain His-tagged (Sino Biological, Cat #10121-H08H) (human, UniProt Q9NPH3 21-367)
T3 construct: extracellular domain; Bought protein; The Octet analyte is printed as huIL1RAP-His (Sino Biological, lot MB08MA1301) without a catalogue number; also called huIL1RAP-His; hIL1RAP; not shown: His tag
T3 sequence (looked up): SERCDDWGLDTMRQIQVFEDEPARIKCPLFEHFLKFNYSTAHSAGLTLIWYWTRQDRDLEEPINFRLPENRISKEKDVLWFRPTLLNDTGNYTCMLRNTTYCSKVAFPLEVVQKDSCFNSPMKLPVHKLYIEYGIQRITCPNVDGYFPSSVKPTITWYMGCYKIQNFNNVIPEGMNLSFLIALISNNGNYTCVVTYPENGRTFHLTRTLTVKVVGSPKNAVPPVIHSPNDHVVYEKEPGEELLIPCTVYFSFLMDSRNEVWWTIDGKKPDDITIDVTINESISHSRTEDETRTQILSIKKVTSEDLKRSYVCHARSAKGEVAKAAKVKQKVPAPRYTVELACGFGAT

T4: recombinant mouse IL1RAP protein (Sino Biological, Cat #52657-M08H) (mouse, UniProt Q61730 21-359)
T4 construct: Bought protein
T4 sequence (looked up): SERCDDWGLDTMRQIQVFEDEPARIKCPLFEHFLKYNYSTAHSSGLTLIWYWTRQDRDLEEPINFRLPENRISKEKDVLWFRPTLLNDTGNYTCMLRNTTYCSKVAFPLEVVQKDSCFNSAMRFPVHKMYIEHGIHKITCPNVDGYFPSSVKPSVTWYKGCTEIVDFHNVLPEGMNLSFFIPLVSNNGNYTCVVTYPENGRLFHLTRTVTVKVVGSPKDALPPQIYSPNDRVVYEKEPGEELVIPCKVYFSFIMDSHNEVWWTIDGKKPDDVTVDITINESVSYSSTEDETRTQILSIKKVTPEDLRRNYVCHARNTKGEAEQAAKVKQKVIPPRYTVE

B1: STLX2001E (antibody, V domains shown)
VH: QVQLVQSGAEVKKPGASVKVSCKASGYTFTGYYMHWVRQAPGQGLEWMGWLNPNSGGTDYVQKFQGRVTMTRDTSISTAYMELSRLRSDDTAVYYCARTLYYYGMDVWGQGTTVTVSS
VL: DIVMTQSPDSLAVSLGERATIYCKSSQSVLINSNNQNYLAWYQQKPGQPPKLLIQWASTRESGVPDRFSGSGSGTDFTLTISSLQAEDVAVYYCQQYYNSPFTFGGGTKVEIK
notes: Purified from hybridoma of immunized Alivamab mice; intact IgG by SEC and SDS-PAGE; captured on anti-mouse IgG Fc sensors in Octet; kappa light chain; also called 74804_01E23A
B2: STLX2005 (antibody, V domains shown)
VH: EVQLVDSGGGLVKPGGSLRLSCAATGFTFSNVWMSWVRQGSGKGLEWVGRIKSKTDGGTIDYAAPVKGRFTISRDDPKNTLYLQMNSLKTEDTAVYYCTTGELLGFDYWGQGTLVTVSS
VL: DIVMTQSPLSLPVTPGEPASISCRSGQSLLHNNGFNCLAWYLQKPGQSPQLLIYLGSNRASGVPDRFSGSGSGTDFTLKISRVEAEDVGVFYCMQTLQTPITFGQGTRLEIK
notes: Purified from hybridoma of immunized Alivamab mice; intact IgG; captured on anti-mouse IgG Fc sensors in Octet; kappa light chain; also called 74804_05B24A
B3: STLX2025 (antibody, V domains shown)
VH: QVQLVQSGAEVKKPGSSVKVSCKASGDTFSNYAITWVRQAPGQGLEWIVGFSPIFGTANYAQKFQGRVTITADKSTSTAYMELSSLISEDTAVYYCAWGSGNFNWFDPWGQGTLVTVSS
VL: AIRMTQSPSSFSASTGDRVTITCRASQGISSYLAWYQQKPGKAPKLLIYAASTLQSGVPSRFSGSGSGTDFTLTISSLQSEDFATYYCQQYYSYPLTFGGGTKVEIK
notes: Purified from hybridoma of immunized Alivamab mice; intact IgG; captured on anti-mouse IgG Fc sensors in Octet; kappa light chain; also called 74804_25H09A

Tests used:
[1] = target: T1, IL1RAP on HEK-Blue IL1β / HEK-Blue IL33 …; test: cell-based or functional assay
[2] = target: T2, cyIL1RAP-His (Lake Pharma); test: Octet BLI; mAb captured on anti-mouse IgG Fc sensor; cyIL1RAP-His analyte
Procedure: (§1) Antibodies were diluted in kinetics buffer (0.1% BSA, 0.02% Tween-20 and 0.05% NaN₃ in PBS) and loaded onto 16 channel anti-mouse IgG Fc capture sensors (AMC, Cat #2001073; Sartorius, Göttingen, Germany). Human, huIL1RAP-His (Sino Biological, lot: MB08MA1301), and monkey, cyIL1RAP-His (Lake Pharma, NY, USA; lot:16205819371) proteins were titrated starting from the highest concentration of 100 nM and followed by 50 nM and 25 nM. Purified antibodies were loaded at 5 μg/ml in kinetics buffer. The experimental parameters selected to determine the kinetic constants were Baseline for 60 s, Loading of antibody to sensor for 180 s, Association of analyte to antibody for 120 s, Dissociation for 1200 s and Regeneration in 10 mM Glycine pH 1.7 for 4×30 s.
(§2) Regeneration cycle tracking was selected for 12 cycles. Binding to human and cynomolgus IL1RAP was measured and KD (M) kinetics were calculated. Also, the disassociation rate (Kdis) (1/s) and association rate (Kon) (1/Ms) kinetics were calculated (data not shown).

[3] = target: T1, IL1RAP on HEK-Blue IL1β / HEK-Blue IL33 …; test: cell-based or functional assay; remark: listed apart in the source
[4] = target: T3, recombinant human IL1RAP protein, …; test: Octet BLI; mAb captured on anti-mouse IgG Fc sensor; huIL1RAP-His analyte
Procedure: as §1, §2

[5] = target: T4, recombinant mouse IL1RAP protein (Sino …); test: cell-free ELISA, mouse IL1RAP coated; data not shown
Procedure: Recombinant human or mouse IL1RAP proteins (Sino Biological, Beijing, China; Cat #10121-H08H and Sino Biological, Cat #52657-M08H respectively) were diluted in PBS, pH 7.4 at concentration of 1 μg/ml, coated on high-binding 384-well clear plates and incubated overnight at 4° C. Following, plates were washed 3× with 0.05% Tween-20 in PBS, pH 7.5 and then blocked with 1% BSA in PBS for 1 hour at room temperature. After 3× washes, wells were incubated with each antibody at the highest concentration of 100 nM followed by seven serial half log dilutions (in 1% BSA and 0.05% Tween-20 in PBS) for 1 hour at room temperature. Plates were then washed 3× and incubated with […] detection antibody (Medna, TX, USA; Cat #D8212, 0.5 μg/ml diluted in 0.02% Tween-20 in PBS). After 5× washes, Supersignal ELISA Pico substrate (Thermofisher, MA, USA; Cat #37069) was applied to wells and chemiluminescent signal was read on Sprectramax L for 200 ms/well. Similarly, detection with specific κ and λ antibodies was conducted to define light chain isotyping.

Row | Binder | IC50, HEK-BlueIL1β NFκB Reporter Assay [1] | Max % Inhibition at 200 nM, HEK-BlueIL1β NFκB Reporter Assay [1] [%] | Kd [2] [nM] | Response [2] | koff [2] [s⁻¹] | kon [2] [M⁻¹ s⁻¹] | IC50, HEK-BlueIL33 NFκB Reporter Assay [3] | Max % Inhibition at 200 nM, HEK-BlueIL33 NFκB Reporter Assay [3] [%] | Kd [4] [nM] | Response [4] | koff [4] [s⁻¹] | kon [4] [M⁻¹ s⁻¹] | binding result [5]
1 | B1 | 7.37e-10 M (implied; unit not printed) | 98 | 4.54 | 0.265 | 0.000863 | 190000 | 2.49e-09 M (implied; unit not printed) | 80 | 2.34 | 0.308 | 0.000391 | 167000 | no binding (tested: 100 nM)
2 | B2 | 4.46e-10 M (implied; unit not printed) | 99 | 2.1 | 0.3 | 0.000563 | 268000 | 2.72e-09 M (implied; unit not printed) | 85 | 1.67 | 0.268 | 0.000491 | 294000 | no binding (tested: 100 nM)
3 | B3 | 1.77e-09 M (implied; unit not printed) | 100 | 2.09 | 0.263 | 0.000297 | 142000 | 6.55e-09 M (implied; unit not printed) | 73 | 2.18 | 0.26 | 0.000337 | 154000 | no binding (tested: 100 nM)
